Laboratory results from the RNAGym collection of RNA variant scans (doi:10.1093/nar/gkz1192).

B1: CPEB3 Ribozyme (parent)
chain: UAACAGGGGGCCACAGCAGAAGCGUUCACGUCGCAGCCCCUGUCAGAUUCUGGUGAAUCUGCGAAUUCUGCUGUAUAUCUC

Variants of: B1
Test: self-cleavage, relative activity (ratio to wild type); higher = more cleavage; in vitro, sequencing
In short: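 CPEB3 self-cleaving ribozyme mutant libraries were made by rounds of error-prone PCR, barcoded, and transcribed in vitro with T7 RNA polymerase for 5 hours at 37°C. Cleavage occurred during transcription and a 15 min DNase I step before EDTA stop. RNAs were reverse transcribed with template switching and Illumina-sequenced, with DNA sequencing mapping barcodes to variants. Relative activity is the variant's cleaved/total read fraction divided by wild type's (minimum 5 reads), averaged across three batches.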

First: A3G G63C
Second: A3G G63U
The self-cleavage of the first is lower: 1.06 for the first, 1.12 for the second.

Going from A3U C32G to A3U G8A, the self-cleavage falls from 0.47 to 0.2.

First: C4A G9A
Second: C4G G36U
The self-cleavage of the first is higher: 0.64 for the first, 0.28 for the second.

Compared with C4A A47G, A3U U49C is lower in self-cleavage: 1.12 for the first, 0.51 for the second.

Compared with A3U U49A, A3U U60C is higher in self-cleavage: 0.47 for the first, 0.59 for the second.

First: A3U U60A
Second: A3U A57G
The self-cleavage of the first is lower: 0.19 for the first, 1.04 for the second.

Going from A3U A57U to C4U G30A, the self-cleavage falls from 0.85 to 0.22.

First: A3U U25A
Second: A3U U25C
The self-cleavage of the first is lower: 0.29 for the first, 0.34 for the second.

Going from C4U U49C to C4A U78C, the self-cleavage rises from 0.69 to 0.74.

First: C4G U26A
Second: C4G U26C
The self-cleavage of the first is higher: 1.19 for the first, 0.96 for the second.

First: C4A G16U
Second: A3U U78G
The self-cleavage of the first is lower: 0.62 for the first, 1.2 for the second.

First: A3U U78C
Second: C4U U43C
The self-cleavage of the first is lower: 0.9 for the first, 0.93 for the second.

Compared with C4A A45U, A3G U60A is lower in self-cleavage: 1.16 for the first, 0.47 for the second.

First: A3G U60G
Second: A3G U60C
The self-cleavage of the first is lower: 0.45 for the first, 0.52 for the second.

Going from C4U C12U to C4U C37G, the self-cleavage falls from 1.21 to 0.9.

First: C4U C37U
Second: A3G U78C
The self-cleavage of the first is lower: 0.91 for the first, 0.99 for the second.

Compared with A3G U78A, A3U A75G is lower in self-cleavage: 1.17 for the first, 1.06 for the second.

Compared with A3U A5G, A3U A5U is higher in self-cleavage: 0.79 for the first, 1.18 for the second.

First: A3U A65U
Second: A3U A65G
The self-cleavage of the first is lower: 0.14 for the first, 0.54 for the second.

Compared with C4U U51A, C4U U51C is higher in self-cleavage: 0.98 for the first, 1.16 for the second.

First: A3U A77U
Second: A3U A77G
The self-cleavage of the first is higher: 1.25 for the first, 1.04 for the second.

Going from C4U A64U to C4G U51C, the self-cleavage rises from 0.7 to 1.12.

Compared with C4G U51A, A3G U49A is lower in self-cleavage: 1.15 for the first, 0.69 for the second.

First: A3G U49C
Second: A3U A18U
The self-cleavage of the first is lower: 0.49 for the first, 0.56 for the second.

First: A3U A18G
Second: A3U U72G
The self-cleavage of the first is lower: 0.8 for the first, 1.09 for the second.

Going from A3U U72C to A3U U72A, the self-cleavage falls from 1.12 to 1.

Compared with A3G G16C, A3G G16U is higher in self-cleavage: 0.47 for the first, 0.62 for the second.

Compared with A3G G16A, C4A is higher in self-cleavage: 0.38 for the first, 1.22 for the second.

Going from C4G to C4U, the self-cleavage rises from 1.1 to 1.17.

First: A3U C79U
Second: A3G G55U
The self-cleavage of the first is higher: 1.21 for the first, 1.12 for the second.

Going from A3U U43G to A3U U43C, the self-cleavage rises from 0.34 to 0.77.

First: A3U U43A
Second: A3U G73C
The self-cleavage of the first is lower: 0.77 for the first, 1.25 for the second.

Going from C4U G33A to C4G U60C, the self-cleavage rises from 0.37 to 0.68.

First: C4G U41A
Second: C4G U41C
The self-cleavage of the first is lower: 0.5 for the first, 1.1 for the second.

Compared with C4U A28G, C4U A28U is higher in self-cleavage: 1.03 for the first, 1.08 for the second.

First: C4U A5G
Second: A3U U69C
The self-cleavage of the first is higher: 0.84 for the first, 0.69 for the second.

First: A3U U69A
Second: C4U G63U
The self-cleavage of the first is lower: 0.54 for the first, 1.23 for the second.

Going from A3G G30A to C4U U58C, the self-cleavage rises from 0.44 to 1.06.

Compared with C4A U67C, C4A U67A is higher in self-cleavage: 0.44 for the first, 1 for the second.

Going from C4G A77G to A3U A15U, the self-cleavage falls from 1.19 to 1.06.

Going from A3U A15G to A3U U54A, the self-cleavage rises from 0.83 to 1.19.

First: A3U U54C
Second: A3G U72C
The self-cleavage of the first is lower: 1.04 for the first, 1.09 for the second.

Compared with A3G U72G, A3G U72A is lower in self-cleavage: 1.07 for the first, 0.7 for the second.

Going from C4A G33U to A3U U26C, the self-cleavage rises from 0.12 to 0.64.

First: A3U U26G
Second: A3U U26A
The self-cleavage of the first is lower: 0.23 for the first, 1.03 for the second.

Compared with A3U C11G, C4G U67C is lower in self-cleavage: 0.4 for the first, 0.29 for the second.

First: A3U G6A
Second: A3U G6U
The self-cleavage of the first is higher: 0.62 for the first, 0.59 for the second.

Compared with A3G G10C, A3G G10A is higher in self-cleavage: 0.35 for the first, 0.46 for the second.

First: C4A A18U
Second: C4A A18G
The self-cleavage of the first is lower: 0.45 for the first, 1.04 for the second.

Compared with C4U A45G, C4U A45U is lower in self-cleavage: 1.25 for the first, 0.47 for the second.

Compared with C4A C44U, C4U A21G is higher in self-cleavage: 0.33 for the first, 0.89 for the second.

Going from A3U A21U to A3U A21G, the self-cleavage rises from 0.56 to 0.79.

First: C4A U41A
Second: A3U G63A
The self-cleavage of the first is lower: 0.41 for the first, 1.03 for the second.

Going from A3U G63U to A3U U58C, the self-cleavage falls from 1.19 to 0.54.

Compared with A3U U58A, C4U C38A is higher in self-cleavage: 0.39 for the first, 0.54 for the second.

Compared with C4U U41C, C4U U41A is lower in self-cleavage: 1.07 for the first, 0.48 for the second.

Compared with A3G U80A, A3G U80C is lower in self-cleavage: 1.11 for the first, 1.07 for the second.

Compared with A3G U80G, C4G U72A is higher in self-cleavage: 1.12 for the first, 1.13 for the second.

Compared with A3U G7C, A3U G7A is higher in self-cleavage: 0.35 for the first, 0.47 for the second.

First: A3U G7U
Second: A3U C17U
The self-cleavage of the first is lower: 0.13 for the first, 0.5 for the second.

Compared with A3U C17G, A3U C17A is lower in self-cleavage: 0.53 for the first, 0.26 for the second.

Compared with A3G G73A, A3U G9C is lower in self-cleavage: 1.22 for the first, 0.25 for the second.

Compared with A3U G9A, C4U U26A is higher in self-cleavage: 0.58 for the first, 1.13 for the second.

Going from C4U U26C to A3U U48C, the self-cleavage falls from 0.88 to 0.63.

A3U U48A and C4U C27U are the same in self-cleavage: 0.56 for the first, 0.56 for the second.

First: A3G U54C
Second: A3G U54G
The self-cleavage of the first is higher: 0.98 for the first, 0.82 for the second.

First: A3G U54A
Second: C4U U60G
The self-cleavage of the first is higher: 0.98 for the first, 0.86 for the second.

Going from C4U U60C to C4U U60A, the self-cleavage rises from 0.75 to 0.95.

Compared with C4A U31A, C4U A56G is higher in self-cleavage: 0.88 for the first, 1.06 for the second.

Compared with C4A U60A, A3U C38G is lower in self-cleavage: 0.89 for the first, 0.31 for the second.

Going from A3U C38U to C4U G42A, the self-cleavage falls from 0.97 to 0.32.

First: C4G A57G
Second: A3U C29U
The self-cleavage of the first is higher: 0.98 for the first, 0.71 for the second.

Compared with A3U A56G, C4U U48C is higher in self-cleavage: 0.63 for the first, 0.99 for the second.

Compared with A3U A28G, A3U A28C is higher in self-cleavage: 0.88 for the first, 0.91 for the second.

First: A3U A28U
Second: C4A U69A
The self-cleavage of the first is higher: 1.13 for the first, 0.68 for the second.

First: A3G G33U
Second: A3G G33A
The self-cleavage of the first is lower: 0.11 for the first, 0.38 for the second.

Going from A3G G33C to A3U U67C, the self-cleavage falls from 0.31 to 0.3.

Going from A3U U67A to C4A G10A, the self-cleavage falls from 0.75 to 0.59.

Compared with C4A U26C, C4G U31C is lower in self-cleavage: 1.21 for the first, 1.17 for the second.

Going from A3G G53A to A3G G53C, the self-cleavage rises from 1.02 to 1.13.

Compared with A3U C4A, A3U C4U is lower in self-cleavage: 1.22 for the first, 1.17 for the second.

Compared with A3G U41A, A3G U41G is lower in self-cleavage: 0.3 for the first, 0.17 for the second.

First: A3G U41C
Second: C4U G8U
The self-cleavage of the first is higher: 0.98 for the first, 0.38 for the second.

With C4U G8A the self-cleavage was 0.28.
